Source: patent US20240261378A1 (UNM RAINFOREST INNOVATIONS, published 2024)

Columns and labels:
[1] = target: T1, endogenous TRIM16 (human, UniProt O95361 1-564); experiment: co-IP of endogenous proteins, HeLa lysates
T1 construct: Endogenous protein, immunoprecipitated from cell lysates

[2] = target: T2, [35S] myc-HA-TRIM16 wild type (in vitro translated) (human, UniProt O95361 1-564, [35S]-methionine radiolabel); experiment: GST pull-down of in vitro translated 35S-labelled TRIM
T2 construct: not shown: Myc-HA tag

[3] = target: T3, 35S-Myc-HA-TRIM21 (in vitro translated) (human, UniProt P19474 1-475, [35S]-methionine radiolabel); experiment: as above
T3 construct: not shown: Myc-HA tag
T3 sequence (P19474 whole entry): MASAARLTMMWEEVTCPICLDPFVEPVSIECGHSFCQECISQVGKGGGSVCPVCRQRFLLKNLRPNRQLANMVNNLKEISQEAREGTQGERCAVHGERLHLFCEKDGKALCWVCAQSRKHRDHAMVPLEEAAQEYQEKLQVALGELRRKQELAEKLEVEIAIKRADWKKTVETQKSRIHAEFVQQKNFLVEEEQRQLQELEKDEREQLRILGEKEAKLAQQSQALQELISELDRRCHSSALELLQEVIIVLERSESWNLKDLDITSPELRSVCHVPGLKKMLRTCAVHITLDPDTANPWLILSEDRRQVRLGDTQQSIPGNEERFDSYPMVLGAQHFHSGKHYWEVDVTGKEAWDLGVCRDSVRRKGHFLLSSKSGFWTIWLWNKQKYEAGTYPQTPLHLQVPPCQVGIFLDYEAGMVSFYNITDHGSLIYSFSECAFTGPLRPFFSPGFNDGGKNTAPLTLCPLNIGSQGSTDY

[4] = target: Optineurin (UniProt Q96CV9 1-577, limits assumed); experiment: GST-galectin-8 pull-down with Sequestosome 1-like receptors
Optineurin, sequence (Q96CV9 whole entry): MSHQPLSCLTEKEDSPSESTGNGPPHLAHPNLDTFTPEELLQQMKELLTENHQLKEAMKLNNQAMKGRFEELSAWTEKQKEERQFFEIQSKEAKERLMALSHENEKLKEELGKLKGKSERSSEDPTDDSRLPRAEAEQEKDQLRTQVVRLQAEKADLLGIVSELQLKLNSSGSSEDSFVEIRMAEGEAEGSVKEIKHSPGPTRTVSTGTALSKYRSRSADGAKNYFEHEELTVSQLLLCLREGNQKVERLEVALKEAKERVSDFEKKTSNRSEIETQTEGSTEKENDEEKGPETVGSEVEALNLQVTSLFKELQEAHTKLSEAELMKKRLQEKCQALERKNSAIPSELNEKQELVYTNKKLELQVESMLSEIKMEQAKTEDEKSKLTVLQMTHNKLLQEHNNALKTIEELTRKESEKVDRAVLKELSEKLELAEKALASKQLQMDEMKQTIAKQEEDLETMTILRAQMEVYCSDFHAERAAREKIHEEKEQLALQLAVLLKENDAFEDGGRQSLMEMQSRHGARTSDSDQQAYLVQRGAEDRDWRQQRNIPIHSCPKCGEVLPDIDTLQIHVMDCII
Source text: GST-fusion proteins were expressed in Escherichia coli SoluBL21 (Amsbio). […] The [³⁵S] labeled proteins were produced using the TNT T7 Quick Coupled Transcription/Translation System (Promega) in the presence of [³⁵S] L-methionine. The proteins were eluted from washed beads by boiling in SDS-PAGE gel loading buffer. separated by SDS-PAGE, and radiolabeled proteins were detected in a Fujifilm bioimaging analyzer BAS-5000 (Fuji).

Binder | binding result [1] | binding result [2] | binding result [3] | binding result [4]
endogenous ULK1 (enzyme, UniProt O75385 1-1050, looked up) MEPGRGGTETVGKFEFSRKDLIGHGAFAVVFKGRHREKHDLEVAVKCINKKNLAKSQTLLGKEIKILKELKHENIVALYDFQEMANSVYLVMEYCNGGDLADYLHAMRTLSEDTIRLFLQQIAGAMRLLHSKGIIHRDLKPQNILLSNPAGRRANPNSIRVKIADFGFARYLQSNMMAATLCGSPMYMAPEVIMSQHYDGKADLWSIGTIVYQCLTGKAPFQASSPQDLRLFYEKNKTLVPTIPRETSAPLRQLLLALLQRNHKDRMDFDEFFHHPFLDASPSVRKSPPVPVPSYPSSGSGSSSSSSSTSHLASPPSLGEMQQLQKTLASPADTAGFLHSSRDSGGSKDSSCDTDDFVMVPAQFPGDLVAEAPSAKPPPDSLMCSGSSLVASAGLESHGRTPSPSPPCSSSPSPSGRAGPFSSSRCGASVPIPVPTQVQNYQRIERNLQSPTQFQTPRSSAIRRSGSTSPLGFARASPSPPAHAEHGGVLARKMSLGGGRPYTPSPQVGTIPERPGWSGTPSPQGAEMRGGRSPRPGSSAPEHSPRTSGLGCRLHSAPNLSDLHVVRPKLPKPPTDPLGAVFSPPQASPPQPSHGLQSCRNLRGSPKLPDFLQRNPLPPILGSPTKAVPSFDFPKTPSSQNLLALLARQGVVMTPPRNRTLPDLSEVGPFHGQPLGPGLRPGEDPKGPFGRSFSTSRLTDLLLKAAFGTQAPDPGSTESLQEKPMEIAPSAGFGGSLHPGARAGGTSSPSPVVFTVGSPPSGSTPPQGPRTRMFSAGPTGSASSSARHLVPGPCSEAPAPELPAPGHGCSFADPITANLEGAVTFEAPDLPEETLMEQEHTEILRGLRFTLLFVQHVLEIAALKGSASEAAGGPEYQLQESVVADQISLLSREWGFAEQLVLYLKVAELLSSGLQSAIDQIRAGKLCLSSTVKQVVRRLNELYKASVVSCQGLSLRLQRFFLDKQRLLDRIHSITAERLIFSHAVQMVQSAALDEMFQHREGCVPRYHKALLLLEGLQHMLSDQADIENVTKCKLCIERRLSALLTGICA | binds |  |  | 
GST-Galectin-8 (other, not shown: GST tag (fusion expressed in E. coli SoluBL21)) MMLSLNNLQNIIYNPVIPFVGTIPDQLDPGTLIVIRGHVPSDADRFQVDLQNGSSMKPRADVAFHFNPRFKRAGCIVCNTLINEKWGREEITYDTPFKREKSFEIVIMVLKDKFQVAVNGKHTLLYGHRIGPEKIDTLGIYGKVNIHSIGFSFSSDLQSTQASSLELTEISRENVPKSGTPQLPSNRGGDISKIAPRTVYTKSKDSTVNHTLTCTKIPPMNYVSKRLPFAARLNTPMGPGRTVVVKGEVNANAKSFNVDLLAGKSKDIALHLNPRLNIKAFVRNSFLQESWGEEERNITSFPFSPGMYFEMIIYCDVREFKVAVNGVHSLEYKHRFKELSSIDTLEINGDIHLLEVRSW |  | no binding | no binding | no binding
